According to the supplement of paper PMC12764529:
± gives the half width of the 95% confidence interval.

assay: folding stability dG unfold (combined trypsin and chymotrypsin); higher = more stable
Summary of the method: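 How resistant each design was to proteolysis was captured as K50, inferred by Bayesian fitting of sequencing counts. Unfolding free energy was then derived relative to a sequence-predicted unfolded-state K50 and a shared folded-state K50, per protease or combined. Digestion used trypsin and chymotrypsin at 11 threefold-diluted concentrations plus a no-protease condition, on mini-proteins under 80 residues without cysteine in a PA-tagged cDNA display construct. Designs were kept only when AlphaFold2 dimer inter-PAE was above 15.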

| Sequence | folding stability dG unfold |
| --- | --- |
| SAGGLTPEQWREIAKNFANELAKEYQERGPNVKIDVEVDPEEGYFKIKVENNDENMPRTITIPWDDIRSAGG [r13_354_TrROS] | 1.1 ± 0.079 kcal/mol |
| SWMFMIEVHDPKNGKERTVPINMPKEQVLDQIREAQEKGPRIEIWGIPPNAIKEIAEEAKLPVEIHPMPPSA [r9_1207_TrROS] | 0.148 ± 0.14 kcal/mol |
| SAGGSAGGSAGGKVSEIDLSGDKVVVTVKGPGGSVVREVHPDKTLEQVLDELLENPELVDSAGGSAGGSAGG [r7_373_TrMRF] | 1.13 ± 0.057 kcal/mol |
| SAGKIEKIVITKKKDGYVIKVYYKDNKKVKTYKAGKTLEEIKKKLEEEGFEIVKVEVKKVKPGEKVEISAGG [r19_386_TrROS_Hall] | 3.06 ± 0.43 kcal/mol |
| SAGGSAGGKETKTITMIIKVKDENGKELKAGDKVEIEINGKKITIEVTYNKKTGYLVVKATIKPSAGGSAGG [r6_657_TrROS_Hall] | 3.37 ± 0.17 kcal/mol |
| SAGGSAGGSAMLIVGGADPEGAAEAAEEFIAAIEKAAEELGIPPEHIEIPVLIAEPGEAPGSAGGSAGGSAG [r3_249_TrMRF] | 0.834 ± 0.12 kcal/mol |
| SAGGSAGGSAGGSGDPNNPVTLLVLDVPSPEPAGTVYYFPDGYVAVNFPSINRTLVFYGSAGGSAGGSAGGS [r4_78_TrMRF] | 1.2 ± 0.17 kcal/mol |
| SAGGSAGGSAGVITVTKDPKTGKYTVTIETPSGPATTVEVSSEEEAKELAKKLGYDIDALSAGGSAGGSAGG [r11_1049_JUSTAS] | 3.82 ± 0.098 kcal/mol |
| SAGGSAGGSAGMVTRRMTPEEAEKFIADLPSDWSVEEISPLPENDIVEIKIKVEPPFKLQSAGGSAGGSAGG [r17_98_JUSTAS] | 1.28 ± 0.097 kcal/mol |
| SAGGSAGGSAGGKKLRIKVKNKKTGKEIEIEIDVEDKTIEEIAKELAKKLNFEVTEIEPVSAGGSAGGSAGG [r7_590_TrROS_Hall] | 2.74 ± 0.24 kcal/mol |
| SATREIELPGKKITIHHNPGNNMFRITIYDPKPGKPVEIPIPANNPGMTMENIIDQIREAAKKGRPVRISAG [r14_157_TrROS] | 0.885 ± 0.082 kcal/mol |
| SAGGSAGGSAGGGVEVLSAERRRIPETGLVLVVIREKEPLKPIVVLMPEEDAVVFLKHFSAGGSAGGSAGGS [r10_988_TrMRF] | 0.703 ± 0.091 kcal/mol |
| SAGGSAGGSAGGTPITDEEFRDLPDDVKLVFENGEVAYVPRDPLKVPIGADKTVTAEPVPSAGGSAGGSAGG [r7_643_TrMRF] | 0.801 ± 0.056 kcal/mol |
| SAGGKPKEITLVVKVGETVEFPEGAEVTYDKETGTVTIKLPDGRTIRVEVTYNPDTDYLVVKITVEPSAGGS [r16_122_TrROS_Hall] | 2.34 ± 0.13 kcal/mol |
| SAGGRGVGRPGSRLLLVAEADLEPDEVSVEELAERIREAFPDVRVVDLRVEVGGEKARLFALVELDVSAGGS [r8_202_TrMRF] | 1.41 ± 0.092 kcal/mol |
| SAGLAAAIAAAGAIAEALGVTVRVEVFRDGELVGTFEIPAPVGDGEPVSLEVRLPDPEVTVRFELRIPGSAG [r14_728_TrMRF] | 2.5 ± 0.11 kcal/mol |

| Sequence | folding stability dG unfold |
| --- | --- |
| SAGGSAGGSVEDVVKKENVEKAEVKPEPNPPVTLTKITSKNPNSNTTLTGTLVVVDPKNGLLLSAGGSAGGS [r12_133_JUSTAS] | 0.0723 ± 0.11 kcal/mol |
| SAGGSKMEIVKYDKEKNVIYVRVDGKTYTFPLDEITEVTFDEETGELTIKVNGKTYTIKLDLPDLVSAGGSA [r2_48_TrROS_Hall] | 4.11 ± 0.29 kcal/mol |
| SAGGMKIRIPEGQEVKLKKVRFWHNGKPWKIPNMEIKVDRIDPNDNRVQIEIKHPNGRPHTFAFDIKSAGGS [r8_215_TrROS] | 0.512 ± 0.086 kcal/mol |
| SAGGSAGGSKVFTVEELENMTPEEIRALIKKSKKPVIIVAKSEEEKKRAAELLKELGVEVKVLSAGGSAGGS [r12_97_TrROS_Hall] | 3.7 ± 0.11 kcal/mol |
| SAGGMTLTVDEIKELLKKGYSLEEIKEALKKAGFEIVEIKKIEKKDGKIYIEIEFKKNKKIIKIEIPSAGGS [r8_179_TrROS_Hall] | 4.2 ± 0.35 kcal/mol |
| SAGGSAGGDEVKIEVEVKKVKVKVRVRVKNEDGEEKEVEKEFEVEVVKVKIEFKSPEEAKKLGLSAGGSAGG [r6_149_TrROS_Hall] | 1.11 ± 0.27 kcal/mol |
| SSMSSSPLGSDPATGTTYYLSVSNNSTTLSTVTPAPVLPISPEELEKIAKELAKKNPKLAKKAKELAEKLKS [r1_330_JUSTAS] | -0.0137 ± 0.3 kcal/mol |
| SAGGSAGGSGMSPEALAIKEQVKAEHPDLRVEVKEKILPNGTLEITVTFDDGTTETYTIPIGESAGGSAGGS [r20_210_JUSTAS] | 3.29 ± 0.086 kcal/mol |
| SAGGEKVTVTVTTETKTVTVTVYKAPAPKFKVTEITLELDENGNLRLTIKLENGETLEFDSLEDLLAALSAG [r5_618_TrROS_Hall] | 2.73 ± 0.3 kcal/mol |
| SAGGSAGGSAGGKIIVVKDKETGKYRVIIVDKKTKKTIVVEVDPNTTLEEALKKAKELLKSAGGSAGGSAGG [r7_138_TrROS_Hall] | 3.52 ± 0.24 kcal/mol |
| SAGGSAGGSAGTLTLRVQLFDEDGRLVAEREVELEVELPPPPPVELEFDEETRELRRRRLSAGGSAGGSAGG [r17_348_TrROS_Hall] | 0.965 ± 0.24 kcal/mol |
| SAGGSAGGSAVVALTPDGALAVWFPEKGVVVVYNPATGTYTVLTVDADNTVTLEDVPPNTDVFSAGGSAGGS [r12_997_TrMRF] | 1.34 ± 0.057 kcal/mol |
| SAGPKIEIHYTPNGIHLTIELPGEWIWMMIPVPPGEKVKIRLPGNGLEITARPYDDYVMIRIRIPDAPSAGG [r19_384_TrROS] | 4.74 ± 0.27 kcal/mol |
| SAGGSAGGSAGGKIDRIQLHYNPGGNVYFRIYGPNGKPRYFMMPAEDLEDFPNAPIEIYPSAGGSAGGSAGG [r7_238_TrROS] | 0.864 ± 0.096 kcal/mol |
| SAGGSAGGSAGMMVVRAKIKLPNGEVLEIENMSLEEILALAKEKGYEIVDIEVVAPDEEPSAGGSAGGSAGG [r11_283_TrMRF] | 4.37 ± 0.26 kcal/mol |
